Tests used:
[1] = target: native cell surface receptor on R-SMC; experiment: cell-based or functional assay
[2] = target: T1, human αvβ5 receptor protein purified from human placenta (human, UniProt P06756 31-1048; P18084 24-799); experiment: BIAcore, receptor immobilized in a hybrid bilayer membrane, mAb in solution (100, 25, 6 nM)
T1 construct: mature; Detergent-solubilised whole heterodimer from tissue
Protocol: (§1) The receptors was immobilized by inserting it into a phospholipid vesicle and producing a hybrid bilayer membrane on a hydrophobic sensor surface. […] Samples of the mAb were passed over this surface and the rates at which they bound and then dissociated from the surface were measured and analyzed using software provided with the instrument.

[3] = target: T2, human αvβ3 receptor protein purified from human placenta (human, UniProt P06756 31-1048; P05106 27-788); experiment: as above
T2 construct: mature; Detergent-solubilised whole heterodimer from tissue; coated on plates (ELISA), inserted in a hybrid bilayer membrane or passed in solution (BIAcore); also called vitronectin receptor; αβ3 receptor
Protocol: as §1

[4] = target: T2, human αvβ3 receptor protein purified …; experiment: BIAcore, receptor immobilized in a hybrid bilayer membrane, mAb in solution
Protocol: as §1

T2 sequence (P06756 31-1048, form in doubt, chain 1 of 2): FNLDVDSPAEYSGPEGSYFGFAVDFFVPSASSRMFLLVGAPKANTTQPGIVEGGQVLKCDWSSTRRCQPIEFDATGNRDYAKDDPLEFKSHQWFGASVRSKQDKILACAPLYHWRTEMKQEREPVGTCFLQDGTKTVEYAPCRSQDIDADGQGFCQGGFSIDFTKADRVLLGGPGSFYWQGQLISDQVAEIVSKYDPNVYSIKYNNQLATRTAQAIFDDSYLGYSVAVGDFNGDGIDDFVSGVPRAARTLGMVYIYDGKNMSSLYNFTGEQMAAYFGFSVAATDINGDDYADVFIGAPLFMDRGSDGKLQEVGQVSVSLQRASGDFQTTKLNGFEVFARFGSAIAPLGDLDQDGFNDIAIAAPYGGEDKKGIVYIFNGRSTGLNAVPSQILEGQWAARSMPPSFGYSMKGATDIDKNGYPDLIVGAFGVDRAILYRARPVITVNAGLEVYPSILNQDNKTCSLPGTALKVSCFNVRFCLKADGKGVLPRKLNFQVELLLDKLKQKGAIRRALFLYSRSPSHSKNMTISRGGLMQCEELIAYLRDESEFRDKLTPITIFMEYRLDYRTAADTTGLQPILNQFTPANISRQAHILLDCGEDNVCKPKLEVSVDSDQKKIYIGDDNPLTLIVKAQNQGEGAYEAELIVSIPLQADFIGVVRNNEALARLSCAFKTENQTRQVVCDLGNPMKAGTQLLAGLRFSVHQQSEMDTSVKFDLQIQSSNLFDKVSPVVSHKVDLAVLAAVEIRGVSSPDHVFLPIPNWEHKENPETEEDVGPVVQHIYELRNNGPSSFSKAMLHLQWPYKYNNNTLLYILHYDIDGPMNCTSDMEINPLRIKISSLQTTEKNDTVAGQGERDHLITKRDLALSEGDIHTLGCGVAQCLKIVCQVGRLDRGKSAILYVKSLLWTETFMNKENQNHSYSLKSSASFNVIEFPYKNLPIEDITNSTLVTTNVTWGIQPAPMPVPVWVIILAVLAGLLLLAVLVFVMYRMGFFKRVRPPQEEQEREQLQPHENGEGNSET
T2 sequence (P05106 27-788, form in doubt, chain 2 of 2): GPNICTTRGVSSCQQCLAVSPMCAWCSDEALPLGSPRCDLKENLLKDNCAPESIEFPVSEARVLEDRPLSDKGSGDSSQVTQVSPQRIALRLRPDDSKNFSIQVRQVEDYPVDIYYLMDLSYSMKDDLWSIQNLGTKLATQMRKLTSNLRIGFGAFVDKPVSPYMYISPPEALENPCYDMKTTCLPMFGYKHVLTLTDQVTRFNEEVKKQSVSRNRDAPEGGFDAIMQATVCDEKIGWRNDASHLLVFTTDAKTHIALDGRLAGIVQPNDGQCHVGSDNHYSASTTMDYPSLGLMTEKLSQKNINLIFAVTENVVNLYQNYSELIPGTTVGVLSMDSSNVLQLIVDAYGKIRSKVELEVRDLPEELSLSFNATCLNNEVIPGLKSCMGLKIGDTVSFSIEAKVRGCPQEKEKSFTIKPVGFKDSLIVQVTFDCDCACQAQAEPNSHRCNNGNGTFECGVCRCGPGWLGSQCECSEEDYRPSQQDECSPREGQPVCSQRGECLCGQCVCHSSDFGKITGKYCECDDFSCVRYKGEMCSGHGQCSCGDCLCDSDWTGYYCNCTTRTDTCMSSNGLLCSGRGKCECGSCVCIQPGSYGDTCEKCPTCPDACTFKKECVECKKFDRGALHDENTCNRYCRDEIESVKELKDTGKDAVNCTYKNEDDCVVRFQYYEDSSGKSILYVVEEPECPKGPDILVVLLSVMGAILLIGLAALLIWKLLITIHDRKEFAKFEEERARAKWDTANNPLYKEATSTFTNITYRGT
T1 sequence (P06756 31-1048, form in doubt, chain 1 of 2): as the sequence (P06756 31-1048, form in doubt, chain 1 of 2) above
T1 sequence (P18084 24-799, form in doubt, chain 2 of 2): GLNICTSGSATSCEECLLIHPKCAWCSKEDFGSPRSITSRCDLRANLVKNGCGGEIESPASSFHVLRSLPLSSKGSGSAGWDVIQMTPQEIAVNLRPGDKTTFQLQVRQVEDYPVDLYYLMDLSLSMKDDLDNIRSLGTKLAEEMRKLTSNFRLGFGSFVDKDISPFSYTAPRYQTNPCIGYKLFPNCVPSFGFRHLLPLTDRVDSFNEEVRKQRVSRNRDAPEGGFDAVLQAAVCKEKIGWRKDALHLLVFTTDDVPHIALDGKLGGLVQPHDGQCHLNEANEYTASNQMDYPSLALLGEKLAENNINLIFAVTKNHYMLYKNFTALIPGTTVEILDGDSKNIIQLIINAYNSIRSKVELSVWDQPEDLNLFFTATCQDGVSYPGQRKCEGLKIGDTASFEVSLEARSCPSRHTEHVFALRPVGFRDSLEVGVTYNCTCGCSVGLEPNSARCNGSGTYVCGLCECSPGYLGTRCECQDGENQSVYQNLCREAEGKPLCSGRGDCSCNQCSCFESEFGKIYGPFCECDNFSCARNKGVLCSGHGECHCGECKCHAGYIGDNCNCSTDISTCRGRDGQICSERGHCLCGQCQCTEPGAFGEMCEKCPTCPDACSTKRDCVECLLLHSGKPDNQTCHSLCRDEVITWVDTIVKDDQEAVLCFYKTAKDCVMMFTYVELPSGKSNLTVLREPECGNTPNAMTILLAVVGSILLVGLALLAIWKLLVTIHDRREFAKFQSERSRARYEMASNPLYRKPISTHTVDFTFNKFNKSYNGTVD

Inhib (%) R-SMC (50 µg/ml) [1] [%]	Kd [2] [nM]	Kd [3] [nM]	fold higher binding affinity (KD) than D12 [4] [fold]	Molecule
43	–	–	–	murine monoclonal antibody LM609
–	0.11	0.29	~5	murine monoclonal antibody B9 (antibody, mouse IgG1, V domains shown, also called mAb B9; Murine B9) VH: QVQLQQSGAELMKPGASVKISCKATGYTFSSYWIEWVKQRPGHGLEWIGEILPRSGNTNYNEKFKGKATFTAETSSNTAYMQLSSLTPEDSAVYYCSSRGVRGSMDYWGQGTSVTVSS VL: DIQMTQTTSSLSASLGDRVTITCRSSQDISNFLNWYQQKPDGTVKLLIYYTSTLHSGVPSRFSGSGSGTDYSLTISNLEQEDIATYFCQQGNTLPWTFGGGTNLEIKR
66	–	1.3	–	murine monoclonal antibody D12 (antibody, V domains shown) VH: EIQLQQSGPEVVKPGASVKVSCKASGYAFTSYNMYWVKQSHGKSLEWIGYIDPYNGDTFYNQKFKGKATLTVDKSSSTAYMHLNSLTSEDSAVFYCARQNYGSFAYWGQGTLVTVSA VL: DIVLTQSPATLSVTPGDSVSLSCRASQSISNHLHWYQQRSHESPRLLIKYASQSISGIPSRFRGSGSGTDFTLNINILETEDFGMYFCQQSNSWPFTFGSGTNLEIKR
